Source: patent publication US20160272683A1 (Novo Nordisk, published 2016)
Numbered stars: 1 amine (or outer) side, 2 acyl side, 3 side chain; on linkers, the order of the positions; unused ones are H or OH. Side chains are listed from the residue outwards. Ends that are not written are not given here. * marks the point of attachment. C20 diacid = O=C(O)CCCCCCCCCCCCCCCCCCC(=O)*; γGlu = O=C(O)[C@H](CCC(=O)[*:2])N[*:1]

T1: human calcitonin receptor (human, UniProt P30988 25-474)
T1 construct: whole, on cells; also called hCT-R; hCTR
T1 sequence (looked up): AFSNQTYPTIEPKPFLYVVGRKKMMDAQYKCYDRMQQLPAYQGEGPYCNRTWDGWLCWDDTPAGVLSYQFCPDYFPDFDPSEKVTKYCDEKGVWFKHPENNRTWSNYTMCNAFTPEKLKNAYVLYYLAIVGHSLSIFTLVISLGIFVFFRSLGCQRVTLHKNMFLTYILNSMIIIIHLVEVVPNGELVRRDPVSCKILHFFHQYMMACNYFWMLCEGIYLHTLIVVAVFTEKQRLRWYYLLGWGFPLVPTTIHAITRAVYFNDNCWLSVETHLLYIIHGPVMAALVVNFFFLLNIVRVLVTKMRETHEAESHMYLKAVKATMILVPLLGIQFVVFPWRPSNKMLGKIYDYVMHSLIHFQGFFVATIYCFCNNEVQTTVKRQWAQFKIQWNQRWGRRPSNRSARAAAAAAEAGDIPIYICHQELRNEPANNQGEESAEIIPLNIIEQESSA

B1: [N-terminal(C20 diacid-gGlu), 4Q, 9V, 15Q, 21Q, 23Y, 27G, 30S, 31G, 32T, 33Y]mimylin (peptide)
peptide: {C20 diacid-γGlu}-EASQLSTAVLGRLSQELHELQTYPRTGTGSGTY-NH2
SMILES: CC(C)C[C@H](NC(=O)[C@H](CCCNC(=N)N)NC(=O)CNC(=O)[C@H](CC(C)C)NC(=O)[C@@H](NC(=O)[C@H](C)NC(=O)[C@@H](NC(=O)[C@H](CO)NC(=O)[C@H](CC(C)C)NC(=O)[C@H](CCC(N)=O)NC(=O)[C@H](CO)NC(=O)[C@H](C)NC(=O)[C@H](CCC(=O)O)NC(=O)CC[C@H](NC(=O)CCCCCCCCCCCCCCCCCCC(=O)O)C(=O)O)[C@@H](C)O)C(C)C)C(=O)N[C@@H](CO)C(=O)N[C@@H](CCC(N)=O)C(=O)N[C@@H](CCC(=O)O)C(=O)N[C@@H](CC(C)C)C(=O)N[C@@H](Cc1c[nH]cn1)C(=O)N[C@@H](CCC(=O)O)C(=O)N[C@@H](CC(C)C)C(=O)N[C@@H](CCC(N)=O)C(=O)N[C@H](C(=O)N[C@@H](Cc1ccc(O)cc1)C(=O)N1CCC[C@H]1C(=O)N[C@@H](CCCNC(=N)N)C(=O)N[C@H](C(=O)NCC(=O)N[C@H](C(=O)NCC(=O)N[C@@H](CO)C(=O)NCC(=O)N[C@H](C(=O)N[C@@H](Cc1ccc(O)cc1)C(N)=O)[C@@H](C)O)[C@@H](C)O)[C@@H](C)O)[C@@H](C)O
B2: [N-terminal(C20 diacid-gGlu), des1, 4G, 9T, 15Q, 21Q, 23Y, 25P, 30S, 31G, 32T, 33Y]mimylin (peptide)
peptide: {C20 diacid-γGlu}-ASGLSTATLGRLSQELHELQTYPPTETGSGTY-NH2
SMILES: CC(C)C[C@H](NC(=O)CNC(=O)[C@H](CO)NC(=O)[C@H](C)NC(=O)CC[C@H](NC(=O)CCCCCCCCCCCCCCCCCCC(=O)O)C(=O)O)C(=O)N[C@@H](CO)C(=O)N[C@H](C(=O)N[C@@H](C)C(=O)N[C@H](C(=O)N[C@@H](CC(C)C)C(=O)NCC(=O)N[C@@H](CCCNC(=N)N)C(=O)N[C@@H](CC(C)C)C(=O)N[C@@H](CO)C(=O)N[C@@H](CCC(N)=O)C(=O)N[C@@H](CCC(=O)O)C(=O)N[C@@H](CC(C)C)C(=O)N[C@@H](Cc1c[nH]cn1)C(=O)N[C@@H](CCC(=O)O)C(=O)N[C@@H](CC(C)C)C(=O)N[C@@H](CCC(N)=O)C(=O)N[C@H](C(=O)N[C@@H](Cc1ccc(O)cc1)C(=O)N1CCC[C@H]1C(=O)N1CCC[C@H]1C(=O)N[C@H](C(=O)N[C@@H](CCC(=O)O)C(=O)N[C@H](C(=O)NCC(=O)N[C@@H](CO)C(=O)NCC(=O)N[C@H](C(=O)N[C@@H](Cc1ccc(O)cc1)C(N)=O)[C@@H](C)O)[C@@H](C)O)[C@@H](C)O)[C@@H](C)O)[C@@H](C)O)[C@@H](C)O
B3: [N-terminal(C20 diacid-gGlu), des1, 4G, 9V, 15Q, 21Q, 23Y, 30S, 31A, 32T, 33Y]mimylin (peptide)
peptide: {C20 diacid-γGlu}-ASGLSTAVLGRLSQELHELQTYPRTETGSATY-NH2
SMILES: CC(C)C[C@H](NC(=O)CNC(=O)[C@H](CO)NC(=O)[C@H](C)NC(=O)CC[C@H](NC(=O)CCCCCCCCCCCCCCCCCCC(=O)O)C(=O)O)C(=O)N[C@@H](CO)C(=O)N[C@H](C(=O)N[C@@H](C)C(=O)N[C@H](C(=O)N[C@@H](CC(C)C)C(=O)NCC(=O)N[C@@H](CCCNC(=N)N)C(=O)N[C@@H](CC(C)C)C(=O)N[C@@H](CO)C(=O)N[C@@H](CCC(N)=O)C(=O)N[C@@H](CCC(=O)O)C(=O)N[C@@H](CC(C)C)C(=O)N[C@@H](Cc1c[nH]cn1)C(=O)N[C@@H](CCC(=O)O)C(=O)N[C@@H](CC(C)C)C(=O)N[C@@H](CCC(N)=O)C(=O)N[C@H](C(=O)N[C@@H](Cc1ccc(O)cc1)C(=O)N1CCC[C@H]1C(=O)N[C@@H](CCCNC(=N)N)C(=O)N[C@H](C(=O)N[C@@H](CCC(=O)O)C(=O)N[C@H](C(=O)NCC(=O)N[C@@H](CO)C(=O)N[C@@H](C)C(=O)N[C@H](C(=O)N[C@@H](Cc1ccc(O)cc1)C(N)=O)[C@@H](C)O)[C@@H](C)O)[C@@H](C)O)[C@@H](C)O)C(C)C)[C@@H](C)O
B4: [des1, 4G, 15Q, 21Q, 23Y, 30S, 31K(C20 diacid-gGlu), 32T, 33Y]mimylin (peptide)
peptide: ASGLSTAALGRLSQELHELQTYPRTETGSK([γGlu-C20 diacid])TY-NH2
modifications: N-terminus assumed
SMILES: CC(C)C[C@H](NC(=O)CNC(=O)[C@H](CO)NC(=O)[C@H](C)N)C(=O)N[C@@H](CO)C(=O)N[C@H](C(=O)N[C@@H](C)C(=O)N[C@@H](C)C(=O)N[C@@H](CC(C)C)C(=O)NCC(=O)N[C@@H](CCCNC(=N)N)C(=O)N[C@@H](CC(C)C)C(=O)N[C@@H](CO)C(=O)N[C@@H](CCC(N)=O)C(=O)N[C@@H](CCC(=O)O)C(=O)N[C@@H](CC(C)C)C(=O)N[C@@H](Cc1c[nH]cn1)C(=O)N[C@@H](CCC(=O)O)C(=O)N[C@@H](CC(C)C)C(=O)N[C@@H](CCC(N)=O)C(=O)N[C@H](C(=O)N[C@@H](Cc1ccc(O)cc1)C(=O)N1CCC[C@H]1C(=O)N[C@@H](CCCNC(=N)N)C(=O)N[C@H](C(=O)N[C@@H](CCC(=O)O)C(=O)N[C@H](C(=O)NCC(=O)N[C@@H](CO)C(=O)N[C@@H](CCCCNC(=O)CC[C@H](NC(=O)CCCCCCCCCCCCCCCCCCC(=O)O)C(=O)O)C(=O)N[C@H](C(=O)N[C@@H](Cc1ccc(O)cc1)C(N)=O)[C@@H](C)O)[C@@H](C)O)[C@@H](C)O)[C@@H](C)O)[C@@H](C)O
B5: [N-terminal(C20 diacid-gGlu), des1, 9V, 15Q, 21Q, 23Y, 30S, 31G, 32T, 33Y]mimylin (peptide)
peptide: {C20 diacid-γGlu}-ASELSTAVLGRLSQELHELQTYPRTETGSGTY-NH2
SMILES: CC(C)C[C@H](NC(=O)[C@H](CCCNC(=N)N)NC(=O)CNC(=O)[C@H](CC(C)C)NC(=O)[C@@H](NC(=O)[C@H](C)NC(=O)[C@@H](NC(=O)[C@H](CO)NC(=O)[C@H](CC(C)C)NC(=O)[C@H](CCC(=O)O)NC(=O)[C@H](CO)NC(=O)[C@H](C)NC(=O)CC[C@H](NC(=O)CCCCCCCCCCCCCCCCCCC(=O)O)C(=O)O)[C@@H](C)O)C(C)C)C(=O)N[C@@H](CO)C(=O)N[C@@H](CCC(N)=O)C(=O)N[C@@H](CCC(=O)O)C(=O)N[C@@H](CC(C)C)C(=O)N[C@@H](Cc1c[nH]cn1)C(=O)N[C@@H](CCC(=O)O)C(=O)N[C@@H](CC(C)C)C(=O)N[C@@H](CCC(N)=O)C(=O)N[C@H](C(=O)N[C@@H](Cc1ccc(O)cc1)C(=O)N1CCC[C@H]1C(=O)N[C@@H](CCCNC(=N)N)C(=O)N[C@H](C(=O)N[C@@H](CCC(=O)O)C(=O)N[C@H](C(=O)NCC(=O)N[C@@H](CO)C(=O)NCC(=O)N[C@H](C(=O)N[C@@H](Cc1ccc(O)cc1)C(N)=O)[C@@H](C)O)[C@@H](C)O)[C@@H](C)O)[C@@H](C)O
B6: [N-terminal(C20 diacid-gGlu), des1, 4G, 15T, 21E, 23Y, 30S, 31G, 32T, 33Y]mimylin (peptide)
peptide: {C20 diacid-γGlu}-ASGLSTAALGRLSTELHELETYPRTETGSGTY-NH2
SMILES: CC(C)C[C@H](NC(=O)CNC(=O)[C@H](CO)NC(=O)[C@H](C)NC(=O)CC[C@H](NC(=O)CCCCCCCCCCCCCCCCCCC(=O)O)C(=O)O)C(=O)N[C@@H](CO)C(=O)N[C@H](C(=O)N[C@@H](C)C(=O)N[C@@H](C)C(=O)N[C@@H](CC(C)C)C(=O)NCC(=O)N[C@@H](CCCNC(=N)N)C(=O)N[C@@H](CC(C)C)C(=O)N[C@@H](CO)C(=O)N[C@H](C(=O)N[C@@H](CCC(=O)O)C(=O)N[C@@H](CC(C)C)C(=O)N[C@@H](Cc1c[nH]cn1)C(=O)N[C@@H](CCC(=O)O)C(=O)N[C@@H](CC(C)C)C(=O)N[C@@H](CCC(=O)O)C(=O)N[C@H](C(=O)N[C@@H](Cc1ccc(O)cc1)C(=O)N1CCC[C@H]1C(=O)N[C@@H](CCCNC(=N)N)C(=O)N[C@H](C(=O)N[C@@H](CCC(=O)O)C(=O)N[C@H](C(=O)NCC(=O)N[C@@H](CO)C(=O)NCC(=O)N[C@H](C(=O)N[C@@H](Cc1ccc(O)cc1)C(N)=O)[C@@H](C)O)[C@@H](C)O)[C@@H](C)O)[C@@H](C)O)[C@@H](C)O)[C@@H](C)O
B7: [N-terminal(C20 diacid-gGlu), des1, 4G, 15Q, 21Q, 23Y, 25H, 30S, 31G, 32T, 33Y]mimylin (peptide)
peptide: {C20 diacid-γGlu}-ASGLSTAALGRLSQELHELQTYPHTETGSGTY-NH2
SMILES: CC(C)C[C@H](NC(=O)CNC(=O)[C@H](CO)NC(=O)[C@H](C)NC(=O)CC[C@H](NC(=O)CCCCCCCCCCCCCCCCCCC(=O)O)C(=O)O)C(=O)N[C@@H](CO)C(=O)N[C@H](C(=O)N[C@@H](C)C(=O)N[C@@H](C)C(=O)N[C@@H](CC(C)C)C(=O)NCC(=O)N[C@@H](CCCNC(=N)N)C(=O)N[C@@H](CC(C)C)C(=O)N[C@@H](CO)C(=O)N[C@@H](CCC(N)=O)C(=O)N[C@@H](CCC(=O)O)C(=O)N[C@@H](CC(C)C)C(=O)N[C@@H](Cc1c[nH]cn1)C(=O)N[C@@H](CCC(=O)O)C(=O)N[C@@H](CC(C)C)C(=O)N[C@@H](CCC(N)=O)C(=O)N[C@H](C(=O)N[C@@H](Cc1ccc(O)cc1)C(=O)N1CCC[C@H]1C(=O)N[C@@H](Cc1c[nH]cn1)C(=O)N[C@H](C(=O)N[C@@H](CCC(=O)O)C(=O)N[C@H](C(=O)NCC(=O)N[C@@H](CO)C(=O)NCC(=O)N[C@H](C(=O)N[C@@H](Cc1ccc(O)cc1)C(N)=O)[C@@H](C)O)[C@@H](C)O)[C@@H](C)O)[C@@H](C)O)[C@@H](C)O

Biological target: T1, human calcitonin receptor
Experiment: whole-cell competition vs 125I-human calcitonin (Assay VIIa)
Outline: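 BHK tk'ts 13 cells stably co-expressing human calcitonin receptor and a CRE-luciferase reporter, seeded overnight at 37 °C. Bound tracer counted by scintillation after cold HBSS washes and NaOH/SDS lysis; IC₅₀ from one-site competition fit taken as receptor affinity.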

Row | IC50 | Binder
1 | 0.796 nM | B1
2 | 0.2 nM | B2
3 | 0.318 nM | B3
4 | 1.27 nM | B4
5 | 0.326 nM | B5
6 | 0.547 nM | B6
7 | 0.45 nM | B7
8 | 0.312 nM | {C20 diacid-γGlu}-ASGLSTATLGRLSQELHELQTYPRTETGSGTY-NH2 [[N-terminal(C20 diacid-gGlu), des1, 4G, 9T, 15Q, 21Q, 23Y, 30S, 31G, 32T, 33Y]mimylin]
9 | 0.959 nM | LSGLSTAVLGRLSQELHELQTYPRTETGSQTY-NH2 (backbone without side chain) [[des1, 2L, 4G, 9V, 15Q, 21Q, 23Y, 30S, 31Q, 32T, 33Y]mimylin]
